Changes are numbered by the printed parent chain.
B1: XB2202/A4 IgG1 (antibody)
heavy: not shown
light: DVVMTQSPSSLSASVGDRVTITCQASQDISNWLNWYQQKPGKAPKLLIYEASNLETGVPSRFSGSGSGTDFTFTISSLQPEDIATYYCQQYNNVLRTFGQGTKVEIKRTVAAPSVFIFPPSDEQLKSGTKVEIKRTVAAPSVFIFPPSDEQLKSGTASVVCLLNNFYPREAKVQWKVDNALQSGNSQESVTEQDSKDSTYSLSSTLTLSKADYEKHKVYACEVTHQGLSSPVTKSFNRGEC
notes: Full-length heterotetrameric IgG1 expressed in 293T cells; also called XB2202/A4 IgG1 antibody
B2: H8 scFv (scFv, V domains shown)
VH: QVQLVQSGAEVKKPGSSVKVSCKASGGTFSSYAISWVRQAPGQGLEWMGGIIPIFGTANYAQKFQGRVTITADESTSTAYMELSSLRSEDTAVYYCAIHGGDRSYWGQGTLVTVSS
VL: QSVLTQSPGTLSLSPGERATLSCRASQSVSSNYLAWYLQKPGQAPRLLISGASSRATGIPDRFSGSGSGTDFTLTISRLEPEDFAVYYCQQYAGSPFTFGPGTKLTVL
notes: VL of the second round pool paired with XB1511 VH
B3: H11 scFv (scFv, V domains shown)
VH: B2 VH
VL: QSVLTQSPDFQSVTPKEKVTITCRASQSIGSSLHWYQQKPDQSPKLLITFASQSFSGVPSRFSGSGSGTDFTLTINSLEAEDAATYYCHQSRNLPFTFGPGTKLTVL
notes: as for B2
B4: A8 scFv (scFv, V domains shown)
VH: B2 VH
VL: QAGLTQSPDFQSVTPKERVTITCRASRYIGSNLHWYQQKPDQPPKLLIKLASQSFSGVPPRFSGGGSGTDFTLTINGLEAEDAATYYCHQTGSFPYTFGQGTKLTVL
notes: as for B2
B5: G8 scFv (scFv, V domains shown)
VH: B2 VH
VL: QSVLTQSPGTLSLSPGDRATLSCRASQSLSGTYLAWYQQKPGQAPRLLIYDASNRAAGIPKRFSGSGSRTDFTLTISRVDPADSAVYYCQQYGSALLTFGGGTKVTVL
notes: as for B2
B6: C7 scFv (scFv, V domains shown)
VH: B2 VH
VL: DIVMTQTPLSLSVTPGQPASISCKSSQSLLHSDGKTHLFWYLQRPGQSPQLLIYEVSGRFSGVSERFSGSGSGTDFTLKISRVEAEDVGVYYCMQGLHIPHTFGQGTKVEIK
notes: as for B2
B7: H10 scFv (scFv, V domains shown)
VH: B2 VH
VL: QSVLTQSPDFQSVSPKDKVTITCRASQSIGSSLHWYQQKPGQSPKLLIKYSSQSFSGVPSRFSGSASGTEFTLTITGLEAEDAATYYCHQSSSLPHTFGQGTKVTVL
notes: as for B2
B8: B11 scFv (scFv, V domains shown)
VH: B2 VH
VL: B2 VL with L38Q, S50Y, T57S, D61V, F63V, A93G, G94S, F97W, P101Q
notes: VL of the second round pool paired with XB1511 VH; also called XB1511/B11 scFv
B9: H5 (scFv, V domains shown)
VH: QVQLVQSGAEVKKPGSSVRVSCKASGGTFSRHAISWVRQAPGQGLEWIGGILPILKTPNYAQRFQGRVTINADESTSTVYMEMSSLRSEDTAVYYCATHGGDRSYWGQGTLVTVSS
VL: SYELTQPPSVSMAPGKTARITCGGNNLGSKIVHWYQQKPGQAPVVVIYSDRDRPSGVPERFSGSNSGNSATLTISGVEAGDEADYYCQVWDSATDHVVFGGGTKLTVL
notes: also called XB2202/H5 scFv

Legend:
[1] = biological target: T1, human PDGFR-hIgG1-Fc chimeric fusion protein (human, UniProt P09619 33-530); experiment: SPR (Biacore T100), PDGFR-Fc captured by anti-6His antibody, 1:1 model
T1 construct: For the IgG assay it was captured by an anti-6His antibody, which points to a His tag; also called recombinant human PDGFR-hIgG1-Fc chimeric fusion protein (R&D, #385-PR-100/CF); human PDGFRβ; not shown: human IgG1 Fc
Experimental: IgG1 to human PDFGR were determined using surface plasmon resonance on a Biacore T100. Briefly, recombinant human PDGFR-hIgG1-Fc chimeric fusion protein (R&D, #385-PR-100/CF) was immobilized on a Series CM5 sensorchip coupled with anti-hIgG1 Fc monoclonal antibody (for the VH and ScFv assays) or anti-6His antibody (for the IgG assay). […] The data was analyzed using the Biacore T100 analysis software using a 1:1 model. Mass transport was checked and avoided to allow accurate measurements. All data was double referenced according to Biacore standard protocol.

human PDGFRβ [2] = biological target: T2, human PDGFRβ (human, UniProt P09619 33-530, limits assumed); experiment: solution equilibrium binding: 35S-Met labelled in vitro translated protein, human PDGFRβ titrated, capture on protein A beads, scintillation counts
T2 construct: also called hPDGFRβ; recombinant human PDGFRβ
Experimental: The affinity of several scFvs was determined by solution based equilibrium binding assay. Specifically, 120 pmol of scFv RNA was translated into free protein with ³⁵S Met incorporated. The translated reaction mixture was 3-fold diluted in binding buffer containing 1×PBS with 0.025% triton, 1 mg/mL BSA and 0.1 mg/mL sssDNA. Human PDGFRβ was diluted in the same binding buffer to final concentrations from 100 nM to 0 nM. The diluted scFv mixture was incubated with hPDGFRβ in final volume of 100 ul on Kingfisher plates (Thermofisher Scientific, 97002084). Following incubation, 25 ul of protein A magnetic beads (Invitrogen) were used to capture the PDGFRβ from solution. The captured PDGFRβ was washed and eluted in kingfisher Reader (Thermofisher Scientific). The amount of scFv (labeled with ³⁵S Met) bound to the magnetic bead-immobilized hPDGFRβ was counted using a scintillation counter and the Kd was calculated with Graph Pad Prism 5.

human PDGFRβ [3] = biological target: T2, human PDGFRβ; experiment: ELISA: plate coated with 2 ug/mL human PDGFRβ or human Fc, in vitro translated crude lysate diluted 1:3, anti-flag-HRP, OD450
Experimental: (§1) A PDGFRβ binding ELISA assay was performed to assess the binding of the scFv to immobilized PDGFRβ and to determine the EC50. Specifically, 2 ug/mL of human PDGFRβ and human Fc or IgG in PBS was immobilized on Maxisorp plates at 4° C. overnight. The plate was then washed and blocked with superblock. In vitro translated crude scFv lysate was diluted 1:3 in 1×PBST. 100 ul of the diluted scFv lysate was loaded into each well of Maxisorp plates and incubated for 1 hour at room temperature. scFv that bound to immobilized PDGFRβ was detected by anti-flag antibody-HRP at 1:5000 dilution and a TMB substrate. The plate was read on a Molecular Device plate reader with end point assay at OD 450 nm.

human PDGFRβ [4] = biological target: T2, human PDGFRβ; experiment: ELISA: plate coated with 2 ug/mL human PDGFRβ or human IgG, in vitro translated crude scFv lysate diluted 1:3, anti-flag-HRP, OD450
Experimental: as §1

T2 sequence (P09619 33-530 limits assumed): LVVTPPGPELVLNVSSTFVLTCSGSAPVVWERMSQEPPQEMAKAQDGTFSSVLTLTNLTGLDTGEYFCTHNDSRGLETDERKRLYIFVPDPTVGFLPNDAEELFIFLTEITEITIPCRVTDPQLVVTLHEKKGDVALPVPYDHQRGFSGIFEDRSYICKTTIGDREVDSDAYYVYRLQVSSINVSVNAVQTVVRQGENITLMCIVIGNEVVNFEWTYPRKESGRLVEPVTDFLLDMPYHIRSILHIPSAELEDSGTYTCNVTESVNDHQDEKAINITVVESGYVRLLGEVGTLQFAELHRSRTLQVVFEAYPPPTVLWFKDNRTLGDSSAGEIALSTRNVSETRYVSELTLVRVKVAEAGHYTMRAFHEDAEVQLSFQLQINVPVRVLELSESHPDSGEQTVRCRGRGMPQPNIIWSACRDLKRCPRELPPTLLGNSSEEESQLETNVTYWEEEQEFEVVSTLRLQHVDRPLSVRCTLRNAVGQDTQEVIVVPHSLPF
T1 sequence (P09619 33-530 limits assumed, stated change not applied): as the sequence (P09619 33-530 limits assumed) above

Row | Binder | Kd (human PDGFRβ [2]) [nM] | binding result (human PDGFRβ [3]) | other results
1 | B1 |  |  | Kd [1]: 1.59 nM; koff [1]: 0.00156 s⁻¹; kon [1]: 980000 M⁻¹ s⁻¹
2 | B2 | 24.4 |  | 
3 | B3 | 12.9 |  | 
4 | B4 |  | binds | 
5 | B5 |  | binds | 
6 | B6 |  | binds | 
7 | B7 | 23.2 |  | 
8 | B8 |  | binds | 
9 | B9 |  |  | binding result (human PDGFRβ [4]): binds

— patent US20130177572A1 (X BODY, published 2013)
